A short description of this series: yeast display, Sf9 membrane polyspecificity reagent, FACS + sequencing; frameworks hold sequencing errors. The procedure, abridged:
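After 36–48 hours of galactose induction, yeast (Saccharomyces cerevisiae BJ5465) displaying a synthetic nanobody library were stained at 4 °C for 1 hour with 10% biotinylated, detergent-solubilized Sf9 membrane reagent. Streptavidin microbeads enriched the stained cells before FACS sorting into low and high (top ~1%) gates on anti-HA and streptavidin fluorescence. Each clone's polyreactivity label reflects its gate of origin.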
Take “QVQLVESGGGLVQAGGSLRLSCAASGSTFTPYAMGWYRQAPGQEREFVAAITSIGGSTYYADSVKGRITISRDNAKNTVYLQMIRLKPEDTAVYNCAADYSEWTLWNDYWGQCTQVTVSS”: the “polyreactivity (PSR sort gate)” value is “high polyreactivity”. Next, “QVQLVESGGGLVQAGGSLRLSCAASGRILKRNAMGWYRQSPGKERELVAAISWSTGTTYYADSVKGRFTISRDNAKNTVYLQMNSLKPEDTAVYYCAKQIVSGRRVDRNDYWGQGTQVTVSS”: “low polyreactivity”.

As to “QVQLVESGGGLVQAGGSLRLSCAASGRIFYRNAMGWYRQAPGKERELVAAITIGTNTYYADSVKGRFTISRDNAKITVYLQMNSLKPEDTAVYYCAVAVFLYTGGVDYWGQGTQVTVSS”, the “polyreactivity (PSR sort gate)” value is “low polyreactivity”. In the case of “QVHLVESGGGLVQAGGSLRLSCAASGRIIGKYAMGWYRQPPGKERELVAAITWSGGNTYYADSVKGRFTISRDNAKNTVYLQMNSLKPEDTAVYYCAASVPGKSHKDGYWGQGSQVTVSS”, the “polyreactivity (PSR sort gate)” value is on record as “high polyreactivity”. Consider “QVQLVESGGGLVQAGGRLRLSGAASGSTFGGYAMGWYRQAPGKERELVASINYGGDTTYYADSVKGRFTISRDNAKNTVYLQMNSLKPEDTAVYYCATDGTTPTPRYAFVRFDHWGQGTQVTVSS”, for which the “polyreactivity (PSR sort gate)” value is given as “low polyreactivity”. With “QVQLVESGGGLVQAGGSRRLSCAASGSILSKYTMGWYRQATGKERELVAVISSSGASTYYADSVKGRFTISRDNAKNTVYLQMNSLKPEDTAVYYCATYPWYSKYRYDHWGQGTQVTVSS” the entry was “high polyreactivity”; with “QDQLVESGGGLVQAGGSLRLSCAASGTFGGYAMGCYRQAPRKERELVARIRRNGGSTYYADSVKGRFTISRDNAKNTVYLQMNCLKPEDTAVYYCATYRYVYGTASYGYWGQGTQVTVSS”, “high polyreactivity”. With “QVQLVESGGGLVQAGGSLRLICAASGFTFYLYTMGWYRQAPGKERELVAAISWRGGGTYYADSVKGRFTISRDNAKNTVYLQMNSLKPEDTEVYYCAAYWRRRLVYYYWGQGTQVTVSS” the entry was “high polyreactivity”. Next, “QVQLVESGGVLFQAGGSLRLSCAAAGFTFKYNAMGWYRQAPGKERELVASITSGATNYADSVKGRFTIARDNAKNTVSLQLTTLKPEETAVYDCAVVDVHYTRAKVGYAYGAYDYWGQCTQVTVSS”: “low polyreactivity”; “QVQLVESGGGLVQAGGSLRLSCAASGSTYNVNAMGWARQAPGKERELVAAITSSGGSSNYADSVKGRFTISRDNAKNTVYLQMNSLKPEDTAVYYCAADAIFFSRLNLGYDYWGQGTQVTVSS”: “low polyreactivity”. With “QVQLVESGGGLVQSGGSLRLSCAASGSIYAYYAMGWYRQAPGKERELVAAIRFNSGRTYYADSVKGRFTISRDNAKNTVYLQMKSLKPEDTAVYYCAARDGYVYSHRYDYWGQGTQVTVSS”, the “polyreactivity (PSR sort gate)” value is “high polyreactivity”. With “QVKLKESVGGLVQAGGSLRLSCAASGSISATGNMGWYRQAPGEERELVAAINFGSNTYYADSVKGRFTISRDNAKNTVYLQKSGLKPEDTAVYYCAVDGWYVGPYYYWGQGTQVTVSS”, the “polyreactivity (PSR sort gate)” value is “high polyreactivity”. Regarding “QVQLVESGGGLVQAGGSLRLSCDASGRTFQYYAMGWYRQAPGKVRELVAGISSCGGSTYYADSVKGRFTISRDNAKNTVDLQMNSLKPEDTAVYYCNKARYFTGQRYDYWGQGTQVTVSS”, the “polyreactivity (PSR sort gate)” value is reported as “high polyreactivity”. With “QVQLVDSGGGLVQAGGSLRLSCAASGSTFTSYAMGWYRQAPGKERELVAAITGSGGRTYYADSVKGRFTISRDNAKNTVYLQMNSLKPEDTAVYYCAARKVRTVYQSRGNYWGQGTLVTVSS”, the “polyreactivity (PSR sort gate)” value is on record as “high polyreactivity”. With “QVQLVESGGGKVQAVGSLRLSCAASGRTFYPYAMGWYRQAPGKERELVAVITWSTGNTYYADSVKGRFTISRDNAKNTVYLQMNSLKPEDTAVYYCAAAYYRYRGTIRYYYWGQGTQVTVSS” the entry was “high polyreactivity”; with “QVQLVESGGGLVQAGGSLRLSCAASGRIFFYNAMGWYRQAPGKERELVAGISRSGTSTYYADSVKGRFTISRDNAKNTVYLQMNSLKPEDTAVYYCAADAWSVILWREMDYWGQGTQVTVSS”, “low polyreactivity”.

“QVQLVESGGGLVQAGRSLRLSCAASGRTFSVNAMGCYRQAPVKERELVAAISWDGGSTYYADSVKGRFTISRDNAKNTVYLQMISLKPEDTSVYDCNKDLYYAYDYWGQGSQVTVSS”: the “polyreactivity (PSR sort gate)” value is given as “low polyreactivity”. Next, “QVQLVESGGGLVQAGGSLRLSCAASGIIFLRNTMGWNRQAPGKERELVASISRRGGSTYYADSVKGRFTISRDNAKNTVYFQLNSLNPEDTAVYYCAATVRGKRSTYDYWGQGTQVTVSS”: “high polyreactivity”. Turning to “QVQLVESGGGLVQAGGSLRLSCAASGSIFAWYAMGWYRQAPGKERELVAAIRFRGGSTYYADSVKGRFTISRDNAKNTVYLQMNSLKPEDTAVYYCAGYYWYRSYYWGQGTQVTVSS”, the “polyreactivity (PSR sort gate)” value is “high polyreactivity”.

For the sequence “QVQLEESGGVLVQAGGSLRLSCAASGLTLYRNAMGWYRQAPGKERELVATINFSGGSTYYADSVKGRFTISRDNAKNTVYLQMNSLKPEDTAVYYCNARGYWHYSPTKFDYWGQGTQVTVSS”, the “polyreactivity (PSR sort gate)” value is on record as “low polyreactivity”.

In the case of “QVQLVESGGGLVQAGGSLRLSCAASGSTFYRYAMGWYRQAPGKERELVAAISSSGGSTYYADSVKGRFTISRDNAKNTVYLQMNSLKPEDTAVYYCNAAYRVRRFDYWGQGTQVTVSS”, the “polyreactivity (PSR sort gate)” value is “low polyreactivity”. Next, “QVQLVESGGGLVQAGGRLRLSCAASGITFYSYAMGRYRQAPGKERELVAAISTTVGSTYYADYVKGRFTISRDNPNNTVYLQMNSLKPEDTAVYYCNSYSVYAWIEYNYWGQGTQVTVSS”: “low polyreactivity”; “QVQLHESGGGLVQVGGSQRLSCAASGNIFYNYAMGWYRHAQGKEREFDATINHGTSINYADSVKGRFTISRDNAKNTVYLQMNSLKPEDTAVYYCAADLSWTDNLFYWGQGTQVTVSS”: “low polyreactivity”. For the sequence “QVQLVESGGGLVQAGGTLRLSGAASGRTLRRYAMGWYRQAPGKARELVATISGRGGSTYYADSVKGRFTISRDNAKNTVYLQMNSLKPEDTAVYYCAADSVLSKYDYWGQGTQVTVSS”, the “polyreactivity (PSR sort gate)” value is “high polyreactivity”. For “QVQLVESGGGLVQAGGSLRLSCAASGRISKGYAMGWYRPAPGKERELVAAISWRTSSTYYADSVKGRFTISRDNAKNTVYLQMNSLKPEANAVYYCAAETWLGSWRQVGMDYWGQGTQVTVSS”, the “polyreactivity (PSR sort gate)” value is “high polyreactivity”. With “QVQLVESGGGLVQAGGSLRLSCAASGSIFGGYTKGWYRQAPWKERELVAAISRRGGNTYYADSVKGRFTISRDNAQITVYLQMNSLKPEDTAVYYCAVLWPSARIPVKLDYWGQGTQVTVSS” the entry was “high polyreactivity”; with “QVQLVESGGGLVQAGGSLRLSCAASGSTCPYYAMGWYRQAPRKEMELVASIRKRGGGTSYADSVKGRFTISRDNAKNTVYLQMNSLKPEDTALYYCAVRVYQLRYTGYDYWGQCTQVTVSS”, “high polyreactivity”. In the case of “QVQLVESGGGLVQAGGSLRLSCAASGFTFAFYAMGWYRQAPGKERELVAAISKNDGTTYYADSVKGRFTISRHTAKNTVYLLMNSLKPEDTAVYYCAAESCYPVYTYVSSGDYWGQGTQVTVSS”, the “polyreactivity (PSR sort gate)” value is “low polyreactivity”. For “QVQLVESGGGLVQAGGSLRLSCAASGRIFVSNAMGWYRQAPGKERELVAAISKSGGRTYYADSVKGRFTISRDNAKNTVYLQMNSLKPEDTAVYYCNAVISLPGNKYDYWGQGTQVTVSS”, the “polyreactivity (PSR sort gate)” value is reported as “high polyreactivity”. Next, “QVQLVESGGGLVQAGGSLRLSCAASGRTFGPYAKGWYRQAPGKERELVAAITDTGSGTFYADSVKGRFTISRDNAKNTVYFQMNSLKPEDTAVYYCNAVRKYWGQGTEVTVSS”: “low polyreactivity”; “QVQLVESGGGLVQAGGSLRLSCAASGGILRDYAMGWSRQAPGKERELVAAISRGGRTNYADSVKGRFTISRDYSKNTVYLQLNSLKPEDTAVYYCAKRYARGENDYWGQGTQVNVSS”: “high polyreactivity”; “QVQLVESVGGLVQAGGSLRLSCAASGSIFHYNALGWYRPAPGKERELVAAITSGGSTYADSVKGRFTISRDNAKNTVYLQMNSLKPEDTAVYYCNADSVGPRGDLGYWGQGTQVTVSS”: “low polyreactivity”.

On to “QVQLVESGGGLVQAGGSLRLSCAASGSTFDVYAMGWYRQAPGKERELVAAITSGGTTNYADSVKGRFTISRDNAKNTVYLQMNSLKPEDTAVYYCAKDSRNVYWDYGYWGQGTQVTVSS”, for which the “polyreactivity (PSR sort gate)” value is given as “low polyreactivity”.

As to “QVQLVESGGGLVQAGGILRLSCAASGSTFYRNAMGWYRQEPGKEREFVAAISFRGGGTYADSVKGRFTISRDNAKNTVYLQMNSLKPEDSAVYYCAAESKPRWYVRYDYWGQGTQVTVSS”, the “polyreactivity (PSR sort gate)” value is reported as “low polyreactivity”. With “QVQLVESGGGLVQAGGSLRLSCAASGFIFSSIAMGWYRPAPGKEREFVAAITSGGITYYADSLKGRFTISRDNAKNTVYLQMNSLKPEDTAVYYCAAVLSYQTPKYYRWRYGYWGQGTQVTVSS” the entry was “low polyreactivity”. As for “QVQLVESVGGLVQAGGSLRLSCAASGSIFRLYAMGWYRQAPGKERELVAAITWSGGSTYYADSVKGRFTISRDNAKNTVYLQMNSLKPEDTAVYYCNALVGGYRSAIFGYWGQGTQVTVSS”, the “polyreactivity (PSR sort gate)” value is reported as “high polyreactivity”.

In the case of “QVQLVESGGGLVQAGGSLRLSCAASGSIFRGNAMGWYRQAPGKERELVAGINRAGSTKYADSVKGRFTISRDNAKNTVYLLMNSLKPEETAVYYCAARGYSSEYDYWGKGTQVTVSS”, the “polyreactivity (PSR sort gate)” value is reported as “high polyreactivity”. Next, “QVQLVESGGGLVQAGGSLRLSCAASGIIFPHYAMGWYRQEPGKERELVAAITRSGGSTYYADSVKGRFTISRDNAKNTVYLQMNSLKPEDTAVYYCAAKRPVQSGGYNYWGQGTQVTVSS”: “high polyreactivity”.

Turning to “QVQLVESGGGLVQAGRSLRLSCASSGSTIVNYAMGWYRQAPGKEMELVAAISRSGGRTYYADSVKGRFTISRDNAKNTVYLQMNSLKPEDTAVYYCARLLLSPEYGYWGQGTQVTVSS”, the “polyreactivity (PSR sort gate)” value is recorded as “high polyreactivity”. With “QVQLVESGGGLVQAGGSLRLSCAASGSTFVPYAMGWNRQAPGKERELVASISWRGGSTSYADSVKGRFTISRDNAKNTVYLQMNSLKPEDNAVYYCAARPRYRYKQDYYYWGQGSQVTVSS” the entry was “high polyreactivity”. With “QVQLVESVGGLVQAGGSLRLSSAASGFTFVPYAMGWYRQAPGKERETNADSVKGRFTISRDNAKNTVYLQMNSLKPEDTAVYYCAADLGRGIYDYWGQGTQVTVSS” the entry was “low polyreactivity”.

The values are drawn from the nanobody polyreactivity screen of Harvey et al. (2022).
